Measurements published in PMC10441475, “Structure of METTL3-METTL14 with an m6A nucleotide reveals insights into m6A conversion and sensing”.

Legend:
METTL3 WT;METTL14 WT [1] = target: T1, METTL3 WT;METTL14 WT (Homo sapiens;Homo sapiens, UniProt Q86U44;Q9HCE5 1-580;1-456, |); experiment: SPR; 1:1 model; FP: 10 mM HEPES pH 7.5, 50 mM KCl, 5 nM RNA; SPR: 10 mM HEPES pH 7.5, 150 mM KCl, 0.05% P20, 25 C; 2-Ap: 50 mM Tris pH 8.0, 10 mM MgCl2, 0.5 uM RNA, read at 37; details: protein: recombinant;recombinant, tags: His-tag removed by TEV;, copies: 1;1
T1 sequence (Q86U44 whole entry, chain 1 of 2): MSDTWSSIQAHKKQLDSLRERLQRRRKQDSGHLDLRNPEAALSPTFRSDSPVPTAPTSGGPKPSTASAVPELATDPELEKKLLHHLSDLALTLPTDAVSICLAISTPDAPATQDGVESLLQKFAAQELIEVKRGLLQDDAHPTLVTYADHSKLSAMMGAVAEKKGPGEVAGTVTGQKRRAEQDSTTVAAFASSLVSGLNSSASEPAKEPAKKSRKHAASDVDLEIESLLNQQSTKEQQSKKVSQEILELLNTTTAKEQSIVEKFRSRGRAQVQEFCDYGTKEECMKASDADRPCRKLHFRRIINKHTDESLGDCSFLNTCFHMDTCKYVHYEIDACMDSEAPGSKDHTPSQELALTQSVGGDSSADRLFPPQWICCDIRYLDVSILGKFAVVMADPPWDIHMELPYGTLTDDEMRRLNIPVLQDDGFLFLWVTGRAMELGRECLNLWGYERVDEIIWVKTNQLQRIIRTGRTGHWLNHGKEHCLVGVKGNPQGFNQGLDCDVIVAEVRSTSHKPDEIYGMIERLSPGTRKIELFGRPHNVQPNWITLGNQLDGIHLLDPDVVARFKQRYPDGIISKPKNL
T1 sequence (Q9HCE5 whole entry, chain 2 of 2): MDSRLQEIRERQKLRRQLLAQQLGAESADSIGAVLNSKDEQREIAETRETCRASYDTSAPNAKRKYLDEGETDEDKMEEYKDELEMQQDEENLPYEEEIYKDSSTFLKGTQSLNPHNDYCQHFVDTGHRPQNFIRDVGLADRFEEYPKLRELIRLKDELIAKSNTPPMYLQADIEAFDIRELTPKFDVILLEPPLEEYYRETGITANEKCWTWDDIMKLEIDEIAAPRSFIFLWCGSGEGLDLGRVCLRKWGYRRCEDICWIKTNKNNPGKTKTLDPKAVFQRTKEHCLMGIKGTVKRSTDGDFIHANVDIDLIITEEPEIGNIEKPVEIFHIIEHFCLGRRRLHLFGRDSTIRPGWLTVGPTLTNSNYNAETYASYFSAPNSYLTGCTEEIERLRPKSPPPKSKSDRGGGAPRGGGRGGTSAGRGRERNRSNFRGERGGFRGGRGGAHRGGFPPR

METTL3 WT;METTL14 R298P = METTL3 WT;METTL14 R298P (Homo sapiens;Homo sapiens, UniProt Q86U44;Q9HCE5 1-580;1-456, |R298P); experiment: SPR; two-state model; FP: 10 mM HEPES pH 7.5, 50 mM KCl, 5 nM RNA; SPR: 10 mM HEPES pH 7.5, 150 mM KCl, 0.05% P20, 25 C; 2-Ap: 50 mM Tris pH 8.0, 10 mM MgCl2, 0.5 uM RNA, read at 37; details: protein: recombinant;recombinant, tags: His-tag removed by TEV;, copies: 1;1
METTL3 WT;METTL14 R298P, sequence (Q86U44 whole entry, chain 1 of 2): as the sequence (Q86U44 whole entry, chain 1 of 2) above
METTL3 WT;METTL14 R298P, sequence (Q9HCE5 whole entry R298P, chain 2 of 2): as the sequence (Q9HCE5 whole entry, chain 2 of 2) above, with R298P counted along it

METTL3 R471H;METTL14 WT = METTL3 R471H;METTL14 WT (Homo sapiens;Homo sapiens, UniProt Q86U44;Q9HCE5 1-580;1-456, R471H|); experiment: as above; details: protein: recombinant;recombinant, tags: His-tag removed by TEV;, copies: 1;1
METTL3 R471H;METTL14 WT, sequence (Q86U44 whole entry R471H, chain 1 of 2): as the sequence (Q86U44 whole entry, chain 1 of 2) above, with R471H counted along it
METTL3 R471H;METTL14 WT, sequence (Q9HCE5 whole entry, chain 2 of 2): as the sequence (Q9HCE5 whole entry, chain 2 of 2) above

METTL3 WT;METTL14 WT [2] = target: T1, METTL3 WT;METTL14 WT; experiment: fluorescence polarization; range given for A-RNA and m6A-RNA together; FP: 10 mM HEPES pH 7.5, 50 mM KCl, 5 nM RNA; SPR: 10 mM HEPES pH 7.5, 150 mM KCl, 0.05% P20, 25 C; 2-Ap: 50 mM Tris pH 8.0, 10 mM MgCl2, 0.5 uM RNA, read at 37; details: protein: recombinant;recombinant; tags: His-tag removed by TEV;; copies: 1;1; label: 5' fluorescein; predicted bulged stem-loop
METTL3 WT;METTL14 WT [3] = target: T1, METTL3 WT;METTL14 WT; experiment: fluorescence polarization; range given for A-RNA and m6A-RNA together; m6A-RNA said to bind more tightly; FP: 10 mM HEPES pH 7.5, 50 mM KCl, 5 nM RNA; SPR: 10 mM HEPES pH 7.5, 150 mM KCl, 0.05% P20, 25 C; 2-Ap: 50 mM Tris pH 8.0, 10 mM MgCl2, 0.5 uM RNA, read at 37; details: protein: recombinant;recombinant; tags: His-tag removed by TEV;; copies: 1;1; label: 5' fluorescein; predicted bulged stem-loop

| Binder | Kd (METTL3 WT;METTL14 WT [1]; bulged stem-loop) [nM] | Kd (METTL3 WT;METTL14 R298P; bulged stem-loop) [nM] | Kd (METTL3 R471H;METTL14 WT; bulged stem-loop) [nM] | Kd (METTL3 WT;METTL14 WT [1]; linear single strand) [nM] | Kd (METTL3 WT;METTL14 R298P; linear single strand) [nM] | Kd (METTL3 R471H;METTL14 WT; linear single strand) [nM] | also measured |
| --- | --- | --- | --- | --- | --- | --- | --- |
| GCCUAGUAGCAGAGAGGACUGCUCCUUGGU (structured_RNA) [rNEAT2 (biotinyl)] | 256 | 356 | 58.8 |  |  |  |  |
| GCCUAGUAGCAGAGAGGACUGCUCCUUGGU (structured_RNA, m6A at position 18) [rNEAT2-m6A (biotinyl)] | 337 | 538 | 62.8 |  |  |  |  |
| CUUCGGACUCUGCU (ssRNA, m6A at position 7) [r6T-m6A (biotinyl)] |  |  |  | 3120 | 22900 | 171 |  |
| GCCUAGUAGCAGAGAGGACUGCUCCUUGGU (structured_RNA) [Fl-NEAT2* (A-RNA)] |  |  |  |  |  |  | Kd (METTL3 WT;METTL14 WT [2]): ~13.4 nM |
| GCCUAGUAGCAGAGAGGACUGCUCCUUGGU (structured_RNA, m6A at position 18) [Fl-NEAT2*-m6A (m6A-RNA)] |  |  |  |  |  |  | Kd (METTL3 WT;METTL14 WT [3]): ~13.4 nM |
| CUUCGGACUCUGCU (ssRNA) [r6T (biotinyl)] |  |  |  | 1360 | 2160 | 108 |  |
